Source: article PMC9061850, “Structural basis for the inhibition of IAPP fibril formation by the co-chaperonin prefoldin” (Nature Communications, 2022)
Positions of bridges follow the written chain, without caps; N, C: chain ends. No end group written: not given here. *: point of attachment. Biotin = O=C1N[C@H]2[C@H](CS[C@H]2CCCCC(=O)*)N1; βAla = NCCC(=O)O

T1: Prefoldin from Pyrococcus horikoshii (PhPFD, α2β4 heterohexamer, 86.4 kDa) (Pyrococcus horikoshii, UniProt O58263 1-148; O58268 1-117, S98G)
T1 construct: Prefoldin α-subunit, Pyrococcus horikoshii, with the point mutation S98G; Prefoldin β-subunit, Pyrococcus horikoshii; Used unlabelled (NMR titration, BLI, EM, ThT assays) and, for the PRE experiments, highly deuterated with 15N or 13CH3 labels on either the α- or the β-subunit; also called archaeal prefoldin; source: E. coli BL21 (DE3), α- and β-subunit from separate pET23c plasmids, purified …
T1 sequence 1: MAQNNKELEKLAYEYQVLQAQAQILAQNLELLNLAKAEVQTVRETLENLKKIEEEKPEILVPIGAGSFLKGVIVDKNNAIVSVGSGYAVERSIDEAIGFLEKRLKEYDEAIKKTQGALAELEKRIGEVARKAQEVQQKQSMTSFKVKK
T1 sequence 2: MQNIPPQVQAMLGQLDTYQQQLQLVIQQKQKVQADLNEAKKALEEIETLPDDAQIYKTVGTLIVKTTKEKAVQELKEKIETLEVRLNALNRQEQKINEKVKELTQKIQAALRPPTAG


Experiments:
[1] = target: T1, Prefoldin from Pyrococcus horikoshii …; assay: NMR titration; unlabeled PhPFD added to 29 µM U-[15N]-IAPP, ratios 1:0 to 1:8; 2D 15N-SOFAST-HMQC at 30 °C; 25 mM MES/NaOH (pH 6.5), 25 mM MgCl2; TITAN global lineshape fitting, two-state model assuming 1:1 stoichiometry; apparent; conditions: both partners purified
[2] = target: T1, Prefoldin from Pyrococcus horikoshii …; assay: BLI; biotinylated monomeric IAPP immobilised on Super Streptavidin biosensors, quenched with biotin; PhPFD 0.5 µM to 150 µM in solution; room temperature; 50 mM MES/NaOH (pH 6.5), 25 mM MgCl2; steady state analysis; conditions: both partners purified

Binder | Kd [1] [µM] | koff [1] [s⁻¹] | Kd [2] [µM]
KCNTATCATQRLANFLVHSSNNFGAILSSTNVGSNTY-OH (ends and bridges not checked; also: U-[15N] isotope label, Human islet amyloid polypeptide (IAPP, amylin); numbers count on: the mature protein; also called U-[15N]-IAPP; monomeric IAPP; source: preparative RP-HPLC as final step) [U-[15N]-labeled recombinant human IAPP (non-amidated), monomeric] | 61 | ~6000 | –
{Biotin-βAla-βAla}-KCNTATCATQRLANFLVHSSNNFGAILSSTNVGSNTY-NH2 (disulfide 2-7; SMILES CC[C@H](C)[C@H](NC(=O)[C@H](C)NC(=O)CNC(=O)[C@H](Cc1ccccc1)NC(=O)[C@H](CC(N)=O)NC(=O)[C@H](CC(N)=O)NC(=O)[C@H](CO)NC(=O)[C@H](CO)NC(=O)[C@H](Cc1c[nH]cn1)NC(=O)[C@@H](NC(=O)[C@H](CC(C)C)NC(=O)[C@H](Cc1ccccc1)NC(=O)[C@H](CC(N)=O)NC(=O)[C@H](C)NC(=O)[C@H](CC(C)C)NC(=O)[C@H](CCCNC(=N)N)NC(=O)[C@H](CCC(N)=O)NC(=O)[C@@H](NC(=O)[C@H](C)NC(=O)[C@@H]1CSSC[C@H](NC(=O)[C@H](CCCCN)NC(=O)CCNC(=O)CCNC(=O)CCCC[C@@H]2SC[C@@H]3NC(=O)N[C@@H]32)C(=O)N[C@@H](CC(N)=O)C(=O)N[C@@H]([C@@H](C)O)C(=O)N[C@@H](C)C(=O)N[C@@H]([C@@H](C)O)C(=O)N1)[C@@H](C)O)C(C)C)C(=O)N[C@@H](CC(C)C)C(=O)N[C@@H](CO)C(=O)N[C@@H](CO)C(=O)N[C@H](C(=O)N[C@@H](CC(N)=O)C(=O)N[C@H](C(=O)NCC(=O)N[C@@H](CO)C(=O)N[C@@H](CC(N)=O)C(=O)N[C@H](C(=O)N[C@@H](Cc1ccc(O)cc1)C(N)=O)[C@@H](C)O)C(C)C)[C@@H](C)O, Human islet amyloid polypeptide (IAPP, amylin), 37 residues; numbers count on: the mature protein; Molecular mass 4271.9 Da, purity 99.2%; also called monomeric biotinylated IAPP; source: synthetic peptide (custom synthesized, Pepscan, Lelystad); not shown: biotin, N-terminal, kept) [biotinylated IAPP (biotinyl-[β-Ala]-[β-Ala]-IAPP-NH2), monomeric] | – | – | 11 ± 1.2
